Common to all, as to experiment: cell-based or functional assay
Experiment [1] concerns the target wild-type DENV4 E glycoprotein (Parent_WT_DENV4), on virus particles (Dengue virus 4) (UniProt P09866).
In experiment [2] the target is DV4-EDIII-DV2 chimeric E glycoprotein (DENV4 backbone with DENV2 envelope domain III), on virus particles (Dengue virus 4/2).
The target of experiment [3] is wild-type DENV2 E glycoprotein (Parent_WT_DENV2), on virus particles (Dengue virus 2) (UniProt P07564).

For the substance human monoclonal antibody 2D22, the FRNT50 (Vero-81 focus reduction neutralization test) in experiment [1] is above 5 ng/µL; in experiment [2], 0.01 ng/µL; in experiment [3], 0.1 ng/µL.

These data come from patent US20170333548A1.
